Measured values: patent US20250043302A1, “MUTATED HYDROXYPHENYLPYRUVATE DIOXYGENASE POLYPEPTIDE, AND CODING GENE AND USE THEREOF” (BEIJING DABEINONG BIOTECHNOLOGY CO., LTD., priority 2021, published 2025)
Numbering of substitutions follows the chain as printed. Names may count otherwise.

What was measured:
[1] = test system: Arabidopsis thaliana T1 plants; experiment: Isoxaflutole tolerance of transgenic Arabidopsis thaliana T1 plants (spray, bleached leaf area grade, damage score); type: in vivo; conditions: Table 11; for Classification and statistics of the grade of pesticide damage Grade 0: number of plants at grade 0; for Classification and statistics of the grade of pesticide damage Grade 1: number of plants at grade 1; for Classification and statistics of the grade of pesticide damage Grade 2: number of plants at grade 2; for Classification and statistics of the grade of pesticide damage Grade 3: number of plants at grade 3; for Scores: pesticide damage score;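 on Scores: Weighted damage index from 0 to 100 where higher means more damage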
Excerpt: (§1) T1 transformants were initially selected from the untransformed seeds using a glufosinate selection scheme. The Arabidopsis thaliana T1 plants (AsHPPD-02) into which the AsHPPD-02 nucleotide sequence was introduced, the Arabidopsis thaliana T1 plants (AsHPPDm-F372A-02) into which the AsHPPDm-F372A-02 nucleotide sequence was introduced, the Arabidopsis thaliana T1 plants (AsHPPDm-F383W-02) into which the AsHPPDm-F383W-02 nucleotide sequence was introduced, the Arabidopsis thaliana T1 plants (AsHPPDm-F372A-F383W-02) into which the AsHPPDm-F372A-F383W-02 nucleotide sequence was introduced, the Arabidopsis thaliana T1 plants (DBN11726N) into which the control recombinant expression vector DBN11726N was introduced, and the wild-type Arabidopsis thaliana plants (CK) (18 days after sowing) were sprayed respectively with topramezone at three concentrations (100 g ai/ha (four-fold field concentration, 4×), 200 g ai/ha (eight-fold field concentration, 8×), and 0 g ai/ha (water, 0×)), isoxaflutole at three concentrations (140 g ai/ha (two-fold field concentration, 2×), 280 g ai/ha (four-fold field concentration, 4×), and 0 g ai/ha (water, 0×)), and mesotrione at three concentrations (210 g ai/ha (two-fold field concentration, […]), 420 g ai/ha (four-fold field concentration, 4×), and 0 g ai/ha (water, 0×)), to determine the tolerance of Arabidopsis thaliana to the herbicides. The degree of damage caused by the herbicide was measured for each plant according to the proportion of bleached leaf area (the proportion of bleached leaf area=bleached leaf area/total leaf area×100%) 7 days after spraying (7 DAT): the case where there is basically no bleached phenotype is defined as grade 0, the case where the proportion of bleached leaf area is less than 50% is defined as grade 1, the case where the proportion of bleached leaf area is more than 50% is defined as grade 2, and the case where the proportion of bleached leaf area is 100% grade is defined as grade 3.
(§2) According to the method as described above in point 6 of Example 1, the aforementioned Arabidopsis thaliana T1 plants and wild-type Arabidopsis thaliana plants (CK) (18 days after sowing) were sprayed respectively with topramezone at three concentrations (25 g ai/ha (one-fold field concentration, 1×). 100 g ai/ha (four-fold field concentration, 4×), and 0 g ai/ha (water, 0×)), isoxaflutole at three concentrations (35 g ai/ha (half-fold field concentration, 0.5×). 70 g ai/ha (one-fold field concentration, 1×), and 0 g ai/ha (water, 0×)), and mesotrione at three concentrations (52.5 g ai/ha (half-fold field concentration, 0.5×), 105 g ai/ha (one-fold field concentration, 1×), and 0 g ai/ha (water, 0×)) to detect the tolerance of Arabidopsis thaliana to the herbicides.
(§3) According to the method as described above in point 6 of Example 1, the aforementioned Arabidopsis thaliana T1 plants and wild-type Arabidopsis thaliana plants (CK) (18 days after sowing) were sprayed with topramezone at three different concentrations (i.e., 100 g ai/ha (four-fold field concentration, 4×), 200 g ai/ha (eight-fold field concentration, 8×) and 0 g ai/ha (water, 0×)), isoxaflutole at three different concentrations (i.e., 140 g ai/ha (two-fold field concentration, 2×), 280 g ai/ha (four-fold field concentration, 4×) and 0 g ai/ha (water, 0×)), and mesotrione at three different concentrations (i.e., 210 g ai/ha (two-fold field concentration, 2×), 420 g ai/ha (four-fold field concentration, 4×) and 0 g ai/ha (water, 0×)) respectively to detect the herbicide tolerance of Arabidopsis thaliana. […]

[2] = test system: Arabidopsis thaliana T1 plants; experiment: Mesotrione tolerance of transgenic Arabidopsis thaliana T1 plants (spray, bleached leaf area grade, damage score); type: in vivo; design: Scores: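 damage score 0-100 computed as Σ(N×S)/(T×M)×100 over grades 0-3 with higher meaning more damage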; conditions: Table 12; for Classification and statistics of the grade of pesticide damage Grade 0: number of plants at grade 0; for Classification and statistics of the grade of pesticide damage Grade 1: number of plants at grade 1; for Classification and statistics of the grade of pesticide damage Grade 2: number of plants at grade 2; for Classification and statistics of the grade of pesticide damage Grade 3: number of plants at grade 3; for Scores: pesticide damage score
Excerpt: as §1, §2, §3

B1: AsHPPDm-A107-F372A-02: nucleotide sequence encoding Avena sativa HPPD with A107 deletion+F372A; vector DBN11778 (nucleic acid)
DNA: ATGCCACCTACTCCAGCTACAGCTACTGGTGCTGCTGCTGCTGCCGTTACTCCTGAGCACGCTGCCAGGTCATTCCCCAGGGTGGTTCGCGTGAACCCCAGATCTGATAGGTTCCCAGTTCTGAGCTTCCACCATGTTGAGCTGTGGTGCGCTGATGCTGCTTCTGCTGCTGGCAGGTTCTCTTTCGCTCTTGGTGCTCCACTCGCTGCTAGATCTGATCTGTCTACAGGAAATAGCGCTCATGCCTCACTCCTGCTTCGCTCAGGTGCTTTGGCCTTCCTCTTCACCGCTCCATATGCTCCCCCACCTCAGGAGGCTACTGCTGCTGCTACAGCCTCCATTCCAAGCTTCTCAGCTGATGCCGCTAGAACCTTCGCTGCTGCTCATGGACTTGCCGTGAGGTCTGTTGGTGTTCGCGTGGCTGATGCTGCTGAGGCTTTCAGAGTTTCCGTTGCCGGCGGAGCTAGGCCAGCTTTCGCTCCTGCTGATTTGGGACATGGTTTCGGCCTGGCTGAGGTTGAGCTTTACGGTGACGTGGTTCTCCGCTTCGTGTCTTACCCAGATGAGACTGACCTGCCTTTCCTTCCCGGCTTCGAGAGAGTTTCCTCTCCTGGTGCCGTGGATTACGGCCTGACAAGGTTCGACCACGTGGTTGGAAACGTTCCCGAGATGGCTCCAGTGATCGATTACATGAAGGGCTTCCTTGGATTCCATGAGTTCGCCGAGTTCACTGCTGAGGACGTGGGAACCACTGAGTCCGGTTTGAACTCTGTGGTTCTCGCCAACAATTCTGAGGCTGTTTTGCTCCCTCTGAATGAGCCTGTGCATGGAACCAAGAGGAGAAGCCAGATTCAAACTTACCTGGAGTACCACGGTGGCCCTGGAGTTCAGCATATCGCCCTTGCTTCTAATGATGTGTTGCGCACACTCAGAGAGATGCGCGCCAGAACCCCCATGGGAGGTTTCGAGTTCATGGCCCCACCACAGGCTAAGTACTACGAGGGCGTTAGAAGGATTGCTGGAGACGTGTTGAGCGAGGAGCAGATCAAGGAGTGCCAAGAGCTGGGTGTTCTTGTGGATAGGGATGACCAGGGCGTTCTGCTTCAAATTGCCACTAAGCCAGTGGGCGACCGCCCTACATTCTTCCTTGAGATGATTCAAAGAATCGGCTGCATGGAGAAGGATGAGGTTGGACAGGAGTACCAAAAGGGCGGATGCGGTGGCTTCGGAAAGGGTAACTTCAGCGAGTTGTTCAAGTCAATCGAGGACTACGAGAAGAGCCTCGAGGTGAAGCAGTCAGTGGTTGCCCAAAAGTCCTGA
modifications: AsHPPDm-A107-F372A-02 Nucleotide Sequence
notes: vector DBN11778
Resistance evaluation ([1]; isoxaflutole 140 g ai/ha (2×)): Moderately | Classification and statistics of the grade of pesticide damage Grade 0 ([1]; isoxaflutole 140 g ai/ha (2×)): 5 | Classification and statistics of the grade of pesticide damage Grade 1 ([1]; isoxaflutole 140 g ai/ha (2×)): 7 | Classification and statistics of the grade of pesticide damage Grade 2 ([1]; isoxaflutole 140 g ai/ha (2×)): 4 | Classification and statistics of the grade of pesticide damage Grade 3 ([1]; isoxaflutole 140 g ai/ha (2×)): 0 | Scores ([1]; isoxaflutole 140 g ai/ha (2×)): 31 | Resistance evaluation ([1]; isoxaflutole 280 g ai/ha (4×)): Poorly resistant | Classification and statistics of the grade of pesticide damage Grade 0 ([1]; isoxaflutole 280 g ai/ha (4×)): 0 | Classification and statistics of the grade of pesticide damage Grade 1 ([1]; isoxaflutole 280 g ai/ha (4×)): 1 | Classification and statistics of the grade of pesticide damage Grade 2 ([1]; isoxaflutole 280 g ai/ha (4×)): 15 | Classification and statistics of the grade of pesticide damage Grade 3 ([1]; isoxaflutole 280 g ai/ha (4×)): 0 | Scores ([1]; isoxaflutole 280 g ai/ha (4×)): 65 | Resistance evaluation ([2]; mesotrione 210 g ai/ha (2×)): Moderately | Classification and statistics of the grade of pesticide damage Grade 0 ([2]; mesotrione 210 g ai/ha (2×)): 6 | Classification and statistics of the grade of pesticide damage Grade 1 ([2]; mesotrione 210 g ai/ha (2×)): 7 | Classification and statistics of the grade of pesticide damage Grade 2 ([2]; mesotrione 210 g ai/ha (2×)): 1 | Classification and statistics of the grade of pesticide damage Grade 3 ([2]; mesotrione 210 g ai/ha (2×)): 2 | Scores ([2]; mesotrione 210 g ai/ha (2×)): 31 | Resistance evaluation ([2]; mesotrione 420 g ai/ha (4×)): Poorly resistant | Classification and statistics of the grade of pesticide damage Grade 0 ([2]; mesotrione 420 g ai/ha (4×)): 1 | Classification and statistics of the grade of pesticide damage Grade 1 ([2]; mesotrione 420 g ai/ha (4×)): 7 | Classification and statistics of the grade of pesticide damage Grade 2 ([2]; mesotrione 420 g ai/ha (4×)): 8 | Classification and statistics of the grade of pesticide damage Grade 3 ([2]; mesotrione 420 g ai/ha (4×)): 0 | Scores ([2]; mesotrione 420 g ai/ha (4×)): 48

B2: AsHPPDm-A107-F383W-02: nucleotide sequence encoding Avena sativa HPPD with A107 deletion+F383W; vector DBN11779 (nucleic acid)
DNA: B1 DNA with G1111T, C1112T, T1145G, C1146G
modifications: AsHPPDm-A107-F383W-02 Nucleotide Sequence
notes: vector DBN11779
Resistance evaluation ([1]; isoxaflutole 140 g ai/ha (2×)): Moderately | Classification and statistics of the grade of pesticide damage Grade 0 ([1]; isoxaflutole 140 g ai/ha (2×)): 7 | Classification and statistics of the grade of pesticide damage Grade 1 ([1]; isoxaflutole 140 g ai/ha (2×)): 7 | Classification and statistics of the grade of pesticide damage Grade 2 ([1]; isoxaflutole 140 g ai/ha (2×)): 1 | Classification and statistics of the grade of pesticide damage Grade 3 ([1]; isoxaflutole 140 g ai/ha (2×)): 1 | Scores ([1]; isoxaflutole 140 g ai/ha (2×)): 25 | Resistance evaluation ([1]; isoxaflutole 280 g ai/ha (4×)): Poorly resistant | Classification and statistics of the grade of pesticide damage Grade 0 ([1]; isoxaflutole 280 g ai/ha (4×)): 4 | Classification and statistics of the grade of pesticide damage Grade 1 ([1]; isoxaflutole 280 g ai/ha (4×)): 4 | Classification and statistics of the grade of pesticide damage Grade 2 ([1]; isoxaflutole 280 g ai/ha (4×)): 7 | Classification and statistics of the grade of pesticide damage Grade 3 ([1]; isoxaflutole 280 g ai/ha (4×)): 1 | Scores ([1]; isoxaflutole 280 g ai/ha (4×)): 44 | Resistance evaluation ([2]; mesotrione 210 g ai/ha (2×)): Moderately | Classification and statistics of the grade of pesticide damage Grade 0 ([2]; mesotrione 210 g ai/ha (2×)): 4 | Classification and statistics of the grade of pesticide damage Grade 1 ([2]; mesotrione 210 g ai/ha (2×)): 9 | Classification and statistics of the grade of pesticide damage Grade 2 ([2]; mesotrione 210 g ai/ha (2×)): 3 | Classification and statistics of the grade of pesticide damage Grade 3 ([2]; mesotrione 210 g ai/ha (2×)): 0 | Scores ([2]; mesotrione 210 g ai/ha (2×)): 31 | Resistance evaluation ([2]; mesotrione 420 g ai/ha (4×)): Poorly resistant | Classification and statistics of the grade of pesticide damage Grade 0 ([2]; mesotrione 420 g ai/ha (4×)): 0 | Classification and statistics of the grade of pesticide damage Grade 1 ([2]; mesotrione 420 g ai/ha (4×)): 2 | Classification and statistics of the grade of pesticide damage Grade 2 ([2]; mesotrione 420 g ai/ha (4×)): 14 | Classification and statistics of the grade of pesticide damage Grade 3 ([2]; mesotrione 420 g ai/ha (4×)): 0 | Scores ([2]; mesotrione 420 g ai/ha (4×)): 63
